Data as given in patent US20100255008A1.
Numbering of substitutions follows the chain as printed. Values belong to the binder of their own block, whether it stands above or below them.

Target: Mouse soluble TWEAK (mouse) (UniProt O54907)
Assay: receptor interaction ELISA: antibody pre-incubated with mouse soluble TWEAK, binding to coated mouse Fn14:Fc

B1: Antibody 15 (antibody, V domains shown)
VH: QVQLQESGPGLVKPSETLSLTCAVSGYSIRSGYWWSWIRQPPGKGLEWIGQIYNKGNTDNNPALKSRVTISVDTSKNQFSLKLSSVTAADTAVYYCARVFWDDAYFDVWGQGTMVTVSS
VL: EIVLTQSPATLSLSPGERATLSCKASQSVSIGPIHLMHWYQQKPGQAPRLLIYGASNPESGIPARFSGSGSGTDFTLTISSLEPEDFAVYYCQQGKESPRTFGQGTKLEIK
- IC50: 5 ng/mL

B5: Antibody 18 (antibody, V domains shown)
VH: B1 VH with A23T, N61S, A63S
VL: B1 VL
- IC50: 6 ng/mL

B7: Antibody 16 (antibody, V domains shown)
VH: B1 VH with N61S, A63S
VL: B1 VL
- IC50: 7 ng/mL

B8: Antibody 20 (antibody, V domains shown)
VH: B1 VH with P41Q, N61S, A63S, R67Q
VL: B1 VL
- IC50: 14 ng/mL

B9: Antibody 17 (antibody, V domains shown)
VH: B1 VH with A23T
VL: B1 VL
- IC50: 6 ng/mL

B11: Antibody 19 (antibody, V domains shown)
VH: B1 VH with P41Q, R67Q
VL: B1 VL
- IC50: 7 ng/mL

Other lines, results leading:

- IC50: 8 ng/mL
B2: Antibody 24 (antibody, V domains shown)
VH: B1 VH with A23T, N61S, A63S
VL: B1 VL with A9G, A64D, S81R

- IC50: 5 ng/mL
B3: Antibody 22 (antibody, V domains shown)
VH: B1 VH with N61S, A63S
VL: B1 VL with A9G, A64D, S81R

- IC50: 6 ng/mL
B4: Antibody 23 (antibody, V domains shown)
VH: B1 VH with A23T
VL: B1 VL with A9G, A64D, S81R

- IC50: 18 ng/mL
B6: Antibody 25 (antibody, V domains shown)
VH: B1 VH with P41Q, R67Q
VL: B1 VL with A9G, A64D, S81R

- IC50: 5 ng/mL
B10: Antibody 21 (antibody, V domains shown)
VH: B1 VH
VL: B1 VL with A9G, A64D, S81R

- IC50: 36 ng/mL
B12: Antibody 26 (antibody, V domains shown)
VH: B1 VH with P41Q, N61S, A63S, R67Q
VL: B1 VL with A9G, A64D, S81R

- IC50: 5.1 ng/mL
B13: TW205 (antibody, V domains shown)
VH: QIHLQESGLGLVKPSQSLTLTCSVTGFSITTPDYSWHWIRQFPGQTLEWMGFLYYEGDTYYNPSLKSRISIARDASKNQFFLQLKSVTTEDTATYFCVRRKYSGYGNWFAYWGQGTQVTVSS
VL: QPVLTQAPSASASLRASVKLTCTLSSQHSTYYIEWYQQHPDKAPRYVMYVDSDGSHIKGDGVPDRFSGSSSGARRYLSISNLQPEDEAIYHCGVYDSTAGAVFGSGTQLTVLG

- IC50: 9 ng/mL
B14: TW202 (antibody, V domains shown)
VH: B13 VH with I2L, H3Q, F42L, S86A, V98A, Q117L, S122L
VL: B13 VL with A7S, H39R, R45K, V50L, V62I, R74H

- IC50: 4.6 ng/mL
B15: TW212 (antibody)
VL: DIVLTQSPAYLTMSPGQTTTISCKASQSVSIGPIHLMHWYQQKPGQPPRLLIYGASNPESGVPARFSGSGSGTDFTLTIHPVEADDAATYFCQQGKESPRTFGPGTKLEITRADAKPTVSIFPPSSEQLGTGSATLVCFVNNFYPKDINVKWKVDGSEKRDGVLQSVTDQDSKDSTYSLSSTLSLTKADYERHNLYTCEVTHKTSTAAIVKTLNRNEC
VH: QVQLQESGPGLLKPAQSLSLTCTVTGYSIRSGYWWSWIRQQPGKGLEWMGQIYNKGNTDNNPSLKSQITMTVDTSKNQFFLRLRSVTTEDTAVYYCARVFWDDAYFDVWGQGIQVTVSSATTTAPSVYPLAPACDSTTSTTNTVTLGCLVKGYFPEPVTVSWNSGALTSGVHTFPSVLHSGLYSLSSSVTVPSSTWPSQTVTCNVAHPASSTKVDKKIVPGDGSGCKPCTCPGPEVSSVFIFPPKPKDVLTISLSPKVTCVVVDISQDDPEVQFSWFIDGKEVHTAVTQPREEQFNSTYRMVSVLPILHQDWLNGKEFKCKVNSPAFPVPIEKTISKRRGQLQVPQVYTMPPPKEQLTQSQVSLTCMIKGFYPEDIDVAWQKNGQPEQSFKNTPPVLDTDETYFLYSKLDVKKDDWEKGDTFTCSVVHEALHNHHTEKTLSQRPGK
